# “Also recorded” adds a separate entry of the source.
# Target: T1, VEGF-A121 (Homo sapiens, UniProt P15692)
# T1 sequence (P15692 27-147 isoform P15692-9 limits assumed): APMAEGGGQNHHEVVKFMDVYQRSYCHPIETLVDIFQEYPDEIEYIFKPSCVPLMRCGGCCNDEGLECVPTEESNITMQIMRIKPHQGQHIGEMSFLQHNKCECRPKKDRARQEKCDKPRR
# Experiment: Surface plasmon resonance, vWF against GF
# Assay type: binding
# Parameters: All growth factors (GFs) and chemokines were purchased in their mature forms; purchased PeproTech; host or cells: Escherichia coli
# Details: vWF immobilized, VEGF-A121 50-800 nM
# Experimental: SPR assays were performed as described previously2. In brief, measurements were made with a Biacore X100 SPR system or Biacore 3000 SPR system (GE Healthcare). Plasma-derived vWF was immobilized via amine coupling on a C1 chip (GE Healthcare) for 2000 resonance units (RU) according to the manufacturer's instructions. Recombinant human VEGF-A165, VEGF-A121, or PDGF-BB was flowed at increasing concentrations in the running buffer at 30 μL/min. The sensor chip was regenerated with glycine at pH 2 for every cycle. Specific binding of GFs to vWF was calculated automatically using the response to a non-functionalized channel as a reference. Binding curves were fitted using BIAevalution software (GE Healthcare). vWF-VEGF-A165 binding results were fitted with Langmuir binding kinetics (1:1 binding with drifting baseline Rmax local). vWF-PDGF-BB binding results were fitted with heterogeneous ligand-parallel reaction.
substance,measurement,value
vWF: human plasma-derived von Willebrand factor (EMD Millipore),binding to VEGF-A121 by SPR,did not show significant binding; also recorded: No binding was observed
